This is an account of results in patent US8420051B2, “Muteins of hNGAL and related proteins with affinity for a given target” (Technische Universitaet Meunchen, priority 2008, dated 2013).

Where two headings read alike, the source gives them in different places.

The target of assay [1] is human neutrophil gelatinase-associated lipocalin (hNGAL, Lcn2, P80188), wild type (Homo sapiens, UniProt P80188). The note with it: cited from earlier work.
For assay [2], the target named is T1, hNGAL mutein C26, SEQ ID NO: 10 (Yd5 + L42P/P48L/Q49L/I55T/K75M) (Homo sapiens, UniProt P80188, C107S/D97E/I100T/I61A/I75T/K154S/K95M/L56R/L62P/L90R/P68L/Q48H/Q69L/R101M/S147Q/S88A/T156S/T165A/T74Q/V53Q/W99L/Y158L/Y72T).
T1 construct: the mature hNGAL protein and the C-terminal Strep-tag II; OmpA signal peptide (N, cleaved yes); made in house; host or cells: E. coli BL21 or TG1-F- (periplasm), plasmid pNGAL15
The format is binding. As to conditions: read-out: Kg (from half-maximal free metal chelate concentration).

In assay [3] the target is T2, hNGAL mutein Tb7, SEQ ID NO: 2 (Homo sapiens, UniProt P80188, C107S/I61A/K154S/L56R/L90R/Q48H/R101M/S88A/T165A/T74Q/V53Q/W99A/Y158L/Y72T).
T2 construct: the mature hNGAL protein and the C-terminal Strep-tag II; OmpA signal peptide (N, cleaved yes); made in house; host or cells: E. coli BL21 or TG1-F- (periplasm), plasmid pNGAL15
Put plainly: ELISA, captured hNGAL variant with Me•DTPA conjugate. Format: binding. As to conditions: Tb•DTPA-RNase A conjugate, read-out: apparent affinity.

Assay [4] has as its target T3, human neutrophil gelatinase-associated lipocalin (hNGAL), wild type, SEQ ID NO: 1 (Homo sapiens, UniProt P80188).
T3 construct: the mature hNGAL protein and the C-terminal Strep-tag II; OmpA signal peptide (N, cleaved yes); made in house; host or cells: E. coli BL21 or TG1-F- (periplasm), plasmid pNGAL14
Described as above. Format: binding.

Assay [5] concerns the target T4, hNGAL mutein Ya6, SEQ ID NO: 8 (Tb7.N9.N34 with Thr136Ser) (Homo sapiens, UniProt P80188, C107S/I100T/I61A/K154S/L56R/L90R/Q48H/R101M/S147Q/S88A/T156S/T165A/T74Q/V53Q/W99L/Y158L/Y72T).
T4 construct: the mature hNGAL protein and the C-terminal Strep-tag II; Strep-tag II (C); OmpA signal peptide (N, cleaved yes); made in house; host or cells: E. coli BL21 or TG1-F- (periplasm), plasmid pNGAL15
The assay is described as follows: SPR (Biacore), immobilized Me•DTPA-RNase. Format: binding. How it is done:
(§1) Real time analysis of hNGAL variants was performed on a BIAcore X system (BIAcore, Uppsala, Sweden) using PBS/t (PBS containing 0.005% (v/v) Tween 20) as running buffer. 5 to 27 μg/ml solutions of the Me•DTPA-RNase conjugate in 10 mM Na-acetate, pH 5.0 were immobilized on a CM5 chip using standard amine coupling chemistry, resulting in a ligand density of 240 to 1800 resonance units (RU). The purified hNGAL variant was applied at a flow rate of 5 or 25 μl/min at concentrations of 0.5 up to 500 nM. The sensorgrams were corrected by subtraction of the corresponding signals measured for the control channel, which had been activated and blocked with ethanolamine. Kinetic data evaluation was performed by global fitting with BIAevaluation software V 3.0 (Karlsson et al. (1991) J. Immunol. Methods 145, 229-240). Alternatively, the plateau values at the end of the association phase (after 200 s) were plotted against the applied protein concentration and fitted as in the ELISA (see above) to determine the equilibrium dissociation constants (KO.
(§2) Finally, the hNGAL variants were analyzed by SPR using a Biacore CM-5 chip with the covalently attached Y-DTPA-RNaseA conjugate and applying the purified recombinant proteins (Table 3). […] The improved KD values result primarily from slower ligand dissociation.
A general note: In SPR one partner is held on a chip, and binding of the other changes the refractive index at the surface.

For assay [6], the target named is T5, hNGAL mutein Tb7.N9.N34, SEQ ID NO: 7 (Tb7.N9 + S127Q) (Homo sapiens, UniProt P80188, C107S/I100T/I61A/K154S/L56R/L90R/Q48H/R101M/S147Q/S88A/T165A/T74Q/V53Q/W99L/Y158L/Y72T).
T5 construct: the mature hNGAL protein and the C-terminal Strep-tag II; Strep-tag II (C); OmpA signal peptide (N, cleaved yes); made in house; host or cells: E. coli BL21 or TG1-F- (periplasm), plasmid pNGAL15
Put plainly: SPR (Biacore), immobilized Me•DTPA-RNase. Format: binding. How it is done:
as §1, §2

Assay [7] concerns the target T6, hNGAL mutein Tb7.N9, SEQ ID NO: 6 (Tb7 + A79L/I80T) (Homo sapiens, UniProt P80188, C107S/I100T/I61A/K154S/L56R/L90R/Q48H/R101M/S88A/T165A/T74Q/V53Q/W99L/Y158L/Y72T).
T6 construct: the mature hNGAL protein and the C-terminal Strep-tag II; OmpA signal peptide (N, cleaved yes); made in house; host or cells: E. coli BL21 or TG1-F- (periplasm), plasmid pNGAL15
The assay is described as follows: SPR (Biacore), immobilized Me•DTPA-RNase. The format is binding. The protocol: as §1, §2

In assay [8] the target is T7, hNGAL mutein Tb7, SEQ ID NO: 2 (Gln28His, Val33Gln, Leu36Arg, Ile41Ala, Tyr52Thr, Thr54Gln, Ser68Ala, Leu70Arg, Trp79Ala, Arg81Met, Cys87Ser, Lys134Ser, Tyr138L (Homo sapiens, UniProt P80188, C107S/I61A/K154S/L56R/L90R/Q48H/R101M/S88A/T165A/T74Q/V53Q/W99A/Y158L/Y72T)).
T7 construct: the mature hNGAL protein and the C-terminal Strep-tag II; OmpA signal peptide (N, cleaved yes); made in house; host or cells: E. coli BL21 or TG1-F- (periplasm), plasmid pNGAL15
The assay is described as follows: SPR (Biacore), immobilized Me•DTPA-RNase. Format: binding. How it is done:
as §1, §2

Assay [9] deals with T8, hNGAL mutein Yd5, SEQ ID NO: 9 (Tb7.N9.N34 + D77E/T136S) (Homo sapiens, UniProt P80188, C107S/D97E/I100T/I61A/K154S/L56R/L90R/Q48H/R101M/S147Q/S88A/T156S/T165A/T74Q/V53Q/W99L/Y158L/Y72T).
T8 construct: the mature hNGAL protein and the C-terminal Strep-tag II; OmpA signal peptide (N, cleaved yes); made in house; host or cells: E. coli BL21 or TG1-F- (periplasm), plasmid pNGAL15
Put plainly: SPR (Biacore), immobilized Me•DTPA-RNase. The format is binding. How it is done:
as §1, §2

[10] abbreviates: 5 μl/min, from the kinetic analysis, read-out: KD.
[11] abbreviates: equilibrium analysis, read-out: Kd/eq.

T5 sequence (P80188 21-198 with the stated changes): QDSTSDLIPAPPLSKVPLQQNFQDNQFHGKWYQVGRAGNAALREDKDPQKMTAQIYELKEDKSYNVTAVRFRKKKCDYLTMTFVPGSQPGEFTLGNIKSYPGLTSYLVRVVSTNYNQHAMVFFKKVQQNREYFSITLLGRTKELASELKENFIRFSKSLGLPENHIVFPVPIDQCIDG
T6 sequence (P80188 21-198 Q48H/V53Q/L56R/I61A/Y72T/T74Q/S88A/L90R/W99L/I100T/R101M/C107S/K154S/Y158L/T165A): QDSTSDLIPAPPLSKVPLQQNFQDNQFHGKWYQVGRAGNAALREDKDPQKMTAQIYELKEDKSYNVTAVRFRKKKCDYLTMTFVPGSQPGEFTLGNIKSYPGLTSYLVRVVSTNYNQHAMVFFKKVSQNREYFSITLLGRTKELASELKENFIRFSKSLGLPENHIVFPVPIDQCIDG
T8 sequence (P80188 21-198 with the stated changes): as the sequence (P80188 21-198 Q48H/V53Q/L56R/I61A/Y72T/T74Q/S88A/L90R/W99L/I100T/R101M/C107S/K154S/Y158L/T165A) above, with D77E, S127Q, T136S counted along it
T1 sequence (P80188 21-198 with the stated changes): as the sequence (P80188 21-198 Q48H/V53Q/L56R/I61A/Y72T/T74Q/S88A/L90R/W99L/I100T/R101M/C107S/K154S/Y158L/T165A) above, with L42P, P48L, Q49L, I55T, K75M, D77E, S127Q, T136S counted along it
T7 sequence (P80188 21-198 Q48H/V53Q/L56R/I61A/Y72T/T74Q/S88A/L90R/W99A/R101M/C107S/K154S/Y158L/T165A): as the sequence (P80188 21-198 Q48H/V53Q/L56R/I61A/Y72T/T74Q/S88A/L90R/W99L/I100T/R101M/C107S/K154S/Y158L/T165A) above, with L79A, T80I counted along it
human neutrophil gelatinase-associated lipocalin (hNGAL, Lcn2, P80188), wild type, sequence (P80188 21-198, one chain of several): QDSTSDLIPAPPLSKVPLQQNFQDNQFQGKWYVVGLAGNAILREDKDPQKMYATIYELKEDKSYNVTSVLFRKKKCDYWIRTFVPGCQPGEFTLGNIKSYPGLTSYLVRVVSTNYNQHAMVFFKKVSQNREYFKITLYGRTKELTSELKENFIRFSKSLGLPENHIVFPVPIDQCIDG
T4 sequence (P80188 21-198 with the stated changes): as the sequence (P80188 21-198 Q48H/V53Q/L56R/I61A/Y72T/T74Q/S88A/L90R/W99L/I100T/R101M/C107S/K154S/Y158L/T165A) above, with S127Q, T136S counted along it
T2 sequence (P80188 21-198 Q48H/V53Q/L56R/I61A/Y72T/T74Q/S88A/L90R/W99A/R101M/C107S/K154S/Y158L/T165A): as the sequence (P80188 21-198 Q48H/V53Q/L56R/I61A/Y72T/T74Q/S88A/L90R/W99L/I100T/R101M/C107S/K154S/Y158L/T165A) above, with L79A, T80I counted along it
T3 sequence (P80188 21-198): as the sequence (P80188 21-198, one chain of several) above

For `O=C(N[C@H]1COC(=O)[C@@H](NC(=O)c2cccc(O)c2O)COC(=O)[C@@H](NC(=O)c2cccc(O)c2O)COC1=O)c1cccc(O)c1O.[Fe+3]` [Fe^3+-enterobactin, enterobactin], the Kd in [1] (read-out: dissociation constant (KD)) is 0.4 nM.

Consider `Nc1ccc(C[C@H](CN(CC(=O)O)[C@H]2CCCC[C@@H]2N(CC(=O)O)CC(=O)O)N(CC(=O)O)CC(=O)O)cc1.[Gd+3]` [Me•p-NH2-Bn-CHX-A″-DTPA (Gd^3+), [(R)-2-amino-3-(4-aminophenyl)propyl]-trans-(S,S)-cyclohexane-1,2-diamine-pentaacetic acid], for which, in assay [2], the Kd is 3.6 ± 0.24 nM.

Take `Nc1ccc(C[C@H](CN(CC(=O)O)[C@H]2CCCC[C@@H]2N(CC(=O)O)CC(=O)O)N(CC(=O)O)CC(=O)O)cc1.[In+3]` [Me•p-NH2-Bn-CHX-A″-DTPA (In^3+), [(R)-2-amino-3-(4-aminophenyl)propyl]-trans-(S,S)-cyclohexane-1,2-diamine-pentaacetic acid]: the Kd in assay [2] turned out to be 44.7 ± 2.5 nM.

For the molecule `Nc1ccc(C[C@H](CN(CC(=O)O)[C@H]2CCCC[C@@H]2N(CC(=O)O)CC(=O)O)N(CC(=O)O)CC(=O)O)cc1.[Tb+3]` [Me•p-NH2-Bn-CHX-A″-DTPA (Tb^3+), [(R)-2-amino-3-(4-aminophenyl)propyl]-trans-(S,S)-cyclohexane-1,2-diamine-pentaacetic acid], the Kd in assay [2] was determined as 2.9 ± 0.17 nM.

Take `C[C@H]1OC(=O)[C@@H](NC(=O)CNC(=O)c2cccc(O)c2O)[C@@H](C)OC(=O)[C@@H](NC(=O)CNC(=O)c2cccc(O)c2O)[C@@H](C)OC(=O)[C@H]1NC(=O)CNC(=O)c1cccc(O)c1O` [bacillibactin]: the “binding” value in assay [1] is “forms stable complexes”.

In the case of `O=C(CC(O)(CC(=O)NCCCCNCCCNC(=O)c1ccc(O)c(O)c1)C(=O)O)NCCCCNCCCNC(=O)c1ccc(O)c(O)c1` [petrobactin], the “binding” value in assay [1] is reported as “does not bind”.

B1: Tb^3+•DTPA-RNase: p-SCN-Bn-CHX-A″-DTPA covalently coupled to bovine ribonuclease A (about 1:1), charged with Tb^3+ (conjugate, UniProt P61823 27-150, looked up)
Ribonuclease pancreatic: KETAAAKFERQHMDSSTSAASSSNYCNQMMKSRNLTKDRCKPVNTFVHESLADVQAVCSQKNVACKNGQTNCYQSYSTMSITDCRETGSSKYPNCAYKTTQANKHIIVACEGNPYVPVHFDASV
modifications: CHX-A''-DTPA chelate with Tb3+
The term koff denotes a measure of how fast the partners let go of each other. The kon is a measure of how fast the partners come together. For the molecule B1, the Kd in assay [3] was found to be 74.5 ± 7.8 nM; in assay [5] (setting [10]), 2.39 nM; in assay [5] (setting [11]) it was 5 ± 0.22 nM; in assay [6] (setting [10]), 15.3 nM; in assay [6] (setting [11]), 21 ± 2.3 nM; in [7] (setting [10]), 15.2 nM. The Kd in [7] (setting [11]) was 25 ± 2.7 nM; in assay [8] (setting [10]) it was 74.9 nM; in assay [8] (from concentration-dependent saturation values in an equilibrium analysis, read-out: Kd/eq), 50 ± 6.5 nM; in assay [9] (setting [10]), 2.34 nM; in assay [9] (setting [11]), 3.8 ± 0.15 nM. In assay [4], the binding activity result is recorded as “no measurable binding activity”. Further, the off-rate (koff) in [5] (5 μl/min) turned out to be 0.00296 s⁻¹; in assay [6] (5 μl/min), 0.0114 s⁻¹; in [7] (5 μl/min), 0.0105 s⁻¹; in assay [8] (5 μl/min) it was 0.0401 s⁻¹; in assay [9] (5 μl/min), 0.00246 s⁻¹. Besides, the kon is 746000 M⁻¹ s⁻¹ in [6] (5 μl/min), 689000 M⁻¹ s⁻¹ in [7] (5 μl/min), 535000 M⁻¹ s⁻¹ in assay [8] (5 μl/min) and 1e+06 M⁻¹ s⁻¹ in [9] (5 μl/min).
